Reference: patent US20230011234A1 (JOINT STOCK COMPANY BIOCAD, published 2023)

T1: Human CD122/IL-2RB Protein (Fc Tag) (human, UniProt P14784 27-240)
T1 construct: No gamma chain is mentioned; also called human IL2βγ; human IL2βγ-Fc; not shown: Fc tag
T1 sequence (looked up): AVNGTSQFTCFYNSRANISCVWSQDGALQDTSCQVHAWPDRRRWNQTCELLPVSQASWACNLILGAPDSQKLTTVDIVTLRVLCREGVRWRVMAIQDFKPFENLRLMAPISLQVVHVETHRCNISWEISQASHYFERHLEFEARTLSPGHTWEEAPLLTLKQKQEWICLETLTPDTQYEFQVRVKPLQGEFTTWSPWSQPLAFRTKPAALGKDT

B1: prolgolimab (antibody, V domains shown)
VH: QVQLVQSGGGLVQPGGSLRLSCAASGFTFSSYWMYWVRQVPGKGLEWVSAIDTGGGRTYYADSVKGRFAISRVNAKNTMYLQMNSLRAEDTAVYYCARDEGGGTGWGVLKDWPYGLDAWGQGTLVTVSS
VL: QPVLTQPLSVSVALGQTARITCGGNNIGSKNVHWYQQKPGQAPVLVIYRDSNRPSGIPERFSGSNSGNTATLTISRAQAGDEADYYCQVWDSSTAVFGTGTKLTVLQ
notes: also called Anti-PD-1 prologolimab; BCD100
B2: BCD-135 (antibody)
chain 1: not shown
chain 2: QTVVTQEPSLSVSPGGTVTLTCGLSSGTVTAINYPGWYQQTPGQAPRTLIYNTNTRHSGVPDRFSGSISGNKAALTITGAQAEDEADYYCALYMGNGGHMFGGGTKLTVLGQPKAAPSVTLFPPSSEELQANKATLVCLISDFYPGAVTVAWKADSSPVKAGVETTTPSKQSNNKYAASSYLSLTPEQWKSHRSYSCQVTHEGSTVEKTVAPTECS

Columns and labels:
[1] = target: PD-1 on Jurkat NFAT-FLuc PD-1 cells (UniProt Q15116 25-288, limits assumed); assay: cell-based or functional assay
PD-1-Fc receptor = target: T2, PD-1-Fc receptor (human, UniProt Q15116 25-167, limits assumed); assay: BLI (OctetRed 96), PD-1-Fc in solution, 1:1 model
T2 construct: also called human PD-1 receptor; not shown: Fc
Description: (§1) The affinity constants for binding of IL15SA bispecific immunocytokines (hereinafter referred to as anti-PD1-Fab-CK_IL15Ra_Hc_IL15CH1FcknobLALA anti-PD-L1-Fab-CK_IL15Ra_Hc_IL15CH1FcknobLALA) to IL2βγ and human PD-1/PD-L1 receptors were measured using OctetRed 96 according to the ForteBio instructions. AR2G biosensors were pre-rehydrated for an hour in mQ. After the activation of biosensors, the bispecific immunocytokines at a concentration of 25 μg/ml in acetate buffer pH4 were non-specifically (by NH₂ groups) immobilized onto the biosensor. The sensors were then immersed into wells containing Human CD122/IL-2RB Protein (Fc Tag) or PD-1-Fc receptor or PD-L1-Fc receptor (1 and 0.5 μg/ml) in PBS buffer supplemented with 0.1% Tween-20 and 0.1% BSA to associate the bispecific super-agonist and the test receptor. The sensors were then immersed in a buffer solution for a subsequent dissociation step.
(§2) The instrumental data, after subtracting a reference signal, were analyzed using Octet Data Analysis software (Version 8.0) in accordance with the standard procedure and using 1:1 interaction model.

PD-L1-Fc receptor [2] = target: T3, PD-L1-Fc receptor (human, UniProt Q9NZQ7 19-238, limits assumed); assay: BLI (OctetRed 96), PD-L1-Fc in solution; Response 0 and KD 0
T3 construct: also called human PD-L1 receptor; not shown: Fc
Description: as §1, §2

[3] = target: T1, Human CD122/IL-2RB Protein (Fc Tag); assay: BLI (OctetRed 96), CD122/IL-2RB-Fc in solution; Response 0 and KD 0
Description: as §1, §2

PD-L1-Fc receptor [4] = target: T3, PD-L1-Fc receptor; assay: BLI (OctetRed 96), PD-L1-Fc in solution, 1:1 model

T3 sequence (Q9NZQ7 19-238 limits assumed): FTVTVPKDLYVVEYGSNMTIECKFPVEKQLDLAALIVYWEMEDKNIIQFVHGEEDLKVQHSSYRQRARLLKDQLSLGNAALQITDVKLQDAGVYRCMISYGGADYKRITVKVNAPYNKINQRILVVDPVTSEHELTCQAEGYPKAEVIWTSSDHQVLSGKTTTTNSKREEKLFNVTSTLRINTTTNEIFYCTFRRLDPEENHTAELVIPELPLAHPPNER
Chain of PD-1 on Jurkat NFAT-FLuc PD-1 cells (Q15116 25-288 limits assumed): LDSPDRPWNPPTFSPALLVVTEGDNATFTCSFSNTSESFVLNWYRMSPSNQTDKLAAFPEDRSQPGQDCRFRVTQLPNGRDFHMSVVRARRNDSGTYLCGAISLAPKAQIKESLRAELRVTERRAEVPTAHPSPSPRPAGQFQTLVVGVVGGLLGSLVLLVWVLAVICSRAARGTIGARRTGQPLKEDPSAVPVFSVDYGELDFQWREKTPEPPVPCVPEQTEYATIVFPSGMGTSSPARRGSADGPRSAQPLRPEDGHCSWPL
T2 sequence (Q15116 25-167 limits assumed): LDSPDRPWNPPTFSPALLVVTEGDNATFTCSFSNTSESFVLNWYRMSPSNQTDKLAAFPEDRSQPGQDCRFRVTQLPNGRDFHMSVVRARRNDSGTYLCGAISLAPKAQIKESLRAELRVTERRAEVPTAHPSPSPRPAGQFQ

Row | Binder | EC50; NFAT-luciferase luminescence (RLU x 10^-3) in co-culture of Jurkat NFAT-FLuc PD-1 cells and Raji PDL1 cells with aCD3/aTAA1 at 1 ng/ml; relief of PD-1/PDL1 inhibition [1] | Kd (PD-1-Fc receptor) | binding result (PD-L1-Fc receptor [2]) | binding result [3] | Kd (PD-L1-Fc receptor [4])
1 | B1 | 0.027 µg/mL | 0.186 nM | no binding (tested: 1 and 0.5 µg/ml) | no binding (tested: 1 and 0.5 µg/ml) | 
2 | B2 |  |  |  |  | < 0.001 nM
